# Measured values published in the nanobody polyreactivity screen of Harvey et al. (2022).
# Test: yeast display, Sf9 membrane polyspecificity reagent, FACS + sequencing; frameworks hold sequencing errors
# Procedure, shortened: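 After 36–48 hours of galactose induction, yeast (Saccharomyces cerevisiae BJ5465) displaying a synthetic nanobody library were stained at 4 °C for 1 hour with 10% biotinylated, detergent-solubilized Sf9 membrane reagent. Streptavidin microbeads enriched the stained cells before FACS sorting into low and high (top ~1%) gates on anti-HA and streptavidin fluorescence. Each clone's polyreactivity label reflects its gate of origin.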
row,Sequence,polyreactivity (PSR sort gate)
1,QVQLVESGGGLVQAGGSLRLSCAASGRIFGSNAMGWYRQAPAKERELVAAITFRTASTYYADSVKGRFTISRDNAKNTVYLQMNSLKPEDTSVYSCNADKFSAPPLYEYEYWGQGTQVTVSS,low polyreactivity
2,QVQLVESGGGLVQAGGSLRLSCAASGIMFFLYAMGWYRQAPGKERELVAAISSGGSTYYAVSVKGRFTISRDNAKNTVYLQMNSLKPEDTAVYYCNARYWPFRYYYWGQGTQVTVSS,high polyreactivity
3,QVQLVESGGGLVQAGGSLRLSCAASGFIFSNNAMGWYRQAPGKERELVAVINGGGSTYYADSVKGRFTISRDNAKNTVYLQMNSLKPEDTAFYYCARKSWPKERRVDPGYDYWGQGTQVTVSS,low polyreactivity
4,QVQLVESGGGLVQAGGSLRLSCAASGFIFGYYAMGWYRQAPGKERDLVAAITSGTGTNYADSVKGRFTISRDNAKISVYLQMIRLKPEDTAVYYCAAYYTWLSEFGYWGQGTQVTVSS,low polyreactivity
5,QVQLVESGGGLDQAGGSLRLSCAASGLTFPTNARGWYRQAPGKEREFVAAITSRGGTTYYADSVKGRFTISRDNAKNTVYLQMNSLKPEETAVYYCGALSVTIYQYDSYGYWGQGTQVSVSS,low polyreactivity
6,QVQHVESGGGLVQAGASLRLSCAASGFIFPSYVKGWYRQAPWKERDLVATISRSGGSTYYADSVKGRFTISRDNAKNTVYLQMNSLKPEDTAVYYCAAYPYSYLQLMDYWGQGTQVTVSS,high polyreactivity
7,QVQLVESGGGLVQAGGSLRLSCAASGLIFRYYAKGWYRQGPGNEMELVAVISRRGDSTYYADSVKVRFTISRDNAKNTVYLQMISLKPEDTAVFYCAAEYFKRYKSYEYWGQGTQVTVSS,high polyreactivity
8,QVQLVESGGGLVQAGGSLRLSCPASGIIFDRNAMGWYRQAPVKERELVAAITGSGGSTYYADSVKGRFTISRDNAKNTVYLQMNSLKPEDTAVYYCAATYLSRWTLYDYWGQGTQVTVSS,high polyreactivity
9,QVQLVESGGGLVQAGGSLRLSCAASGITFSRYAMGWYRQAPGKERELVATITFSGTSTFYADSVKGRFTISRDNAKNTVYLQMNSLKPEDTAVYYCARLRFGSWSTYYYWGQGTQVTVSS,low polyreactivity
10,QVQLVESGGGLVQAGGSLRLSCAASGIIFAVYAMGWYRQAPGKERELVAAISTSGGRTYYADSVKGRFTISRDNAKNTVYLQMNSLKPEDTAVYYCAAEYVGKGTPDDYDYWGQGTQVTVSS,high polyreactivity
11,QVQLVESGGGLVQAGGSLRLSCAASGLTFRAYVMGWYRQAPWKERELVAAISVSGGSTYYADSVKGRFTISRDNAKNKVYLQLNSLKPEDTAVYYFAAAYSSSKSSGNYYYWGLGTQVTVSS,high polyreactivity
12,QVQLVESGGGLVQAGGSLRLSCAASGRTFSTYAMGWCRQAPGKERELVAAISRRGGSTYYADSVKGRFTISRDNAKYTVYLQMNSLKPEDTAVYYGAADSYDSDVNEYDYWGQGTQVTVSS,high polyreactivity
13,QVQLVESGGGLVQAGGSLRLSCAASGFIFPGYTRGWYRQAPGKEWELVAAISRGSSTYYADSVKGRFTISRDNAKNTVYLQMNSLKPEDTSVYYCNTRVYAITLYDYWGQGTQVTVSS,low polyreactivity
14,QVQLVESGGGLVQAGGSLRLSCAASGSIFYSNAMGWYRQAPGKEREFVAAISAGGGSTYYADSVKGRFTISRDNAKNPVYLQMNSLKPEDTAVYYCAAQQYKIIYPYDYWGQGTQVTVSS,low polyreactivity
15,QVQLVESGGGLVQAGGSLPLSCAASGSTFKQNVMGWYIQAPGKERELVAAITSNDDRTYYADSVKGRFTISRDNAKNTFYLQMNSLKPEDTAVYYCAVESLRDVFEYDYWGQGTQVTVSS,low polyreactivity
16,QVQLVESGGGLVQAGGSLRLSCAASGRIFRYNAMGLYRQAPGKERELVAVITSRGGRTYYADSVKGRFTISRDNAKNTVYLQMNSLKPEDTAVYYCTAKRYRYYRWYFTGKYDYWGQGTQVTVSS,high polyreactivity
17,QVQLVESGGGLVQAGGSLRLSCAASGFNVRYYAMGWYRQAPGKERELVAAISSGGNTRYADSVKGRFTISRDNAKNTVYLQMNSLKPEDTAVYYCARRPGAWKYVYTGDYWGQGTQVTVSS,high polyreactivity
18,QVHLVESGGGLVQAGGSLRLICAASGSIYTPNAMGWYRQAPGKETELVAAISSSSDRTYYADSVTGRFTISRDNAKNTFYLQMNSLKPEDTEVYYCNADLRGHGRGTDQYIFDYWGQGTQVTVSS,high polyreactivity
19,QVQLVESGVGLVQAGGSLRLSCAASGSIFEYYTMGWYRQAPGKERELVAAISSDGSTNYADSVTGRFTISRDDAKTTVYLQMISLKPEDTAVDYCASSTSRFYYYRKRGYWGQGTQVTVSS,low polyreactivity
20,QVQLVESGGGLVQAGGSLRLSCAASGRTFRTNAMGWYRQAAGKERELVAAIRASTGSTYYADSVKGRFTMSRDNAKNTVYLQMNSLKPEDTAVYYCAARLRRGLTATWYYYWGQGTQVTVSS,high polyreactivity
21,QDQLVESGGGLVQAGGSLRLSCAASGYTFSYYAMGWYRQAPGKERELVAAITSTGSTYYADSVKGRFTISRDYAKNTVYLQMNILKPEDTAVYYCNVDDATVGPVDYWGQGTQVTVSS,low polyreactivity

row,Sequence,polyreactivity (PSR sort gate)
1,QVQLVESGGGLVQAGGSLRLSCSASGYIFGRNSMGWYRTAHGKERELVAVISSRGSRTYYADSVKGRFTISRDNAKNTVYLQMNSLKPEDTAVYYCNAVLWWDWVYDFYYWGQGNQVTVSS,high polyreactivity
2,QVQLVESGGGLVQAGGSLRLSCAASGRSFTYYAMGWYRQAPGKERELVATISGSGGSTYYADSVKGRFTISRDNAKNTVYLQMNSLKPEDTAVYYCAATGFIFRGRVRAIPRRYNYWGQGTQVTVSS,high polyreactivity
3,QVQLVESGGGLVQEGGSLRLSCAASGSIFKPYAMGWYRQAPGKERELVAAINRGGTSTYYADSVKGRFTISRDNAKHTVYLQMNRLKPEDTAVYYCAAEGQDGRFYWGQGTQVTVSS,low polyreactivity
4,QVQLVESGGGLVQAGGSLRLSCAASGRIVTDSAMGWYSQAPGKDREFVAAIRRSGGSTYYAGCVKGRCTISRDTANNTVYLQMNSLKPEDTAVYYCAARGATSYYIFHSWGQGTQVTVSS,high polyreactivity
5,QVQLVESGGGLVQAGGSLRLSCAASGSTFSSYAMGWYRQAPGKERELVAAISSSGVRTYYADSVKGRFTISRDNAKNSVYLQMNSLKPEDTAVYYCKLTLLTVNRTGMTTWGQGTQVTVSS,high polyreactivity
6,QVQLVESGGGLVQAGGSLRLSCAASGLTFYVYTMGWYRQEPGKERELVAAITGSGGSTFYADSVKGRFTISRDNAKNTVFIQMNSLKREDTAVYYCAAYYYMSDGYDYWGQGTQVTVSS,low polyreactivity
7,QVQLVESGGGLVQAGGSLRLSCAASGSTFRTYAKGWYRQAPGKERELVASITRRGGRTYYADSVKGRFTISRDNAKNTVYLQMYSLKPEDTAVYYCAAADQQYDYWGQGTQVTVTS,high polyreactivity
8,QVQLVESGGGLVQAGGSLRLSCAASGFTIHYYVMVWYRQAPGKERELVAAIRRGGSTSYADSVKGRFTISRDNAKNTVYLQMNSLKPEDTAVYYCAASYVSGERYDYWGQGTQVTVSS,low polyreactivity
9,QVQLVESGGGLVQAGGSLRLSCAASGRIFNQYGMGWYRQAPGKERELVAAIRSGDSTNYADSVKGRFTISRDNAKNTVYLQMNSLKPEDTAVYYCKAVPSQHDEFDYWGQGTQVTVSS,low polyreactivity
10,QVQLVESGGGLVQSGGSLRLTWAASGFTFNRYAMGWYRQAPGKEMELVAAITSRSGITYYADSVKGRFTISRDNAKNTVYLQMNSLKPEDTAVYYCAAYVSRSTEFDYGFWGQGTQVTVSS,high polyreactivity
11,QVQLVESGGGLVQAGGSLRLSCAASGRIISSNAMGWYRQAPGKEREFVAAISWRTGSTYYADSVKGRFTISRDNAKNTVYLQMNILKPEDTAVYYCNKRNGSYCYPYYYWGQGTQVTVSS,high polyreactivity
12,QVQLVESWRGLVQAGGSLRLSCAASGNTFRWYAMGWYRQEPGKEREFVADITVRGGSTYYADSLKGRFTISRDNAKNTVYLQMNSLKPEQTAVYYCAVDFRRYPGFDYWGQGTQVTVSS,low polyreactivity
13,QVQLVESGGGLVQAGGSLRLSCAASGSIFPGNAMRWYRQAPGKERELVATITWSGGSTYYADSVKGRFTISRDNAKNTVYLQINSLKPEDTAVYYCNADSNWYYQWNYYGLYDYWGQGTQVTVSS,low polyreactivity
14,QVQLVESGGGLVQAGGSLRLSCAASGRTFYPNTMGWYRQAPGKERELVATITRSGGTTYADSVKGRFTISRDNAKNTVYLQMHSLKPEDTAVYYCNADQRRYYWLVSQRYDYWGQGTQVTVSS,low polyreactivity
15,QVQLVESGGGLVQAGGSLRLSCAASGITFSRYAMGWYRQAPGKERELVATITFSGTSTFYADSVKGRFTISRDNAKNRFYLQMNSLKPEDTAVYYCARLRFGSWSTYYYWGQGTQVTVSS,low polyreactivity
16,QVQLVESGGGLVHAGGSLRLSCAASGIILDYNAMGWYRQAPGKERELVAAITWSGSSTFYADTVKGRYTISHDNSKNTVYLQMNSLKPEDTAVYYCNADYFWGTYANFDYWGQCTQVTVSS,low polyreactivity
17,QVQLVESGGGLVQAGGSLRLSCAASRLTFNTYTIGWYRQAPGKERELVAGRSKSGGRTYYADSVKGRFTISRDNAKITVYLQMNILKAEDTSVYYCSTRSTTDFYWGHGTQVTVSS,high polyreactivity
18,QVQLVESGGGLVQAGGSLRLSCAASGFIFPLYAMGWYRQAPGKERELVAAITWRGDTTSYADSVKGSFTISRDNAKNTVYLQMNSLKPEDTAVYYCAAEFYDWWYYGGGEYWGQGTQVTVSS,high polyreactivity
19,QVQLVESGGGLVQAGGSLRLSCAASGFTFDSNAMGWYRQAPGKERELGAAISKRGGSTYYADSVKGRFTISRDNAKNTVYLQMNSLKPEDTAVYYCAADNYNSGGTRHMYYWGQGTQVTVSS,high polyreactivity
20,QFQLVESGGGLVQAGGSLRLSCAASGRIFGENARGWYSQATRKEREFVAVISISDASTYYADSVKGRFTITRDNAKNTVYLQMNSLKREDTAVDYCAADLTDFLYVASDYWGQGTQVTVSS,low polyreactivity
